The values below come from patent US7232671.

The data set deals with purified bovine transducin (alpha subunit is the ADP-ribose acceptor), P04695.

B1: full-length recombinant S1 with the Arg->Lys mutation at residue 9 (protein)
chain: DDPPATVYKYDSRPPEDVFQNGFTAWGNNDNVLDHLTGRSCQVGSSNSAFVSTSSSRRYTEVYLEHRMQEAVEAERAGRGTGHFIGYIYEVRADNNFYGAASSYFEYVDTYGDNAGRILAGALATYQSEYLAHRRIPPENIRRVTRVYHNGITGETTTTEYSNARYVSQHTRANPNPYTSRRSVASIVGTLVRMAPVIGACMARQAESSEAMAAWSERAGEAMVLVYYESIAYS
B1: the transferase activity result is “transferase activity was reduced by a factor of approximately 1000”.

B2: S1 mutant 2-2 (Ser12->Gly in S1/6A) (protein)
chain: MVPPATVYRYDGRPPEDVFQNGFTAWGNNDNVLDHLTGRSCQVGSSNSAFVSTSSSRRYTEVYLEHRMQEAVEAERAGRGTGHFIGYIYEVRADNNFYGAASSYFEYVDTYGDNAGRILAGALATYQSEYLAHRRIPPENIRRVTRVYHNGITGETTTTEYSNARYVSQHTRANPNPYTSRRSVASIVGTLVRMAPVIGACMARQAESSEAMAAWSERAGEAMVLVYYESIAYS
As to B2, the ADP-ribosyltransferase activity (cpm) was 22300 ± 2100 cpm.

B3: S1 mutant 4-1 (Arg9->Lys in S1/6A) (protein)
chain: MVPPATVYKYDSRPPEDVFQNGFTAWGNNDNVLDHLTGRSCQVGSSNSAFVSTSSSRRYTEVYLEHRMQEAVEAERAGRGTGHFIGYIYEVRADNNFYGAASSYFEYVDTYGDNAGRILAGALATYQSEYLAHRRIPPENIRRVTRVYHNGITGETTTTEYSNARYVSQHTRANPNPYTSRRSVASIVGTLVRMAPVIGACMARQAESSEAMAAWSERAGEAMVLVYYESIAYS
B3 came in with an ADP-ribosyltransferase activity (cpm) of 754 cpm.

B4: S1 mutant 8-1 (Tyr8->Leu, Arg9->Glu in S1/6A) (protein)
chain: MVPPATVLEYDSRPPEDVFQNGFTAWGNNDNVLDHLTGRSCQVGSSNSAFVSTSSSRRYTEVYLEHRMQEAVEAERAGRGTGHFIGYIYEVRADNNFYGAASSYFEYVDTYGDNAGRILAGALATYQSEYLAHRRIPPENIRRVTRVYHNGITGETTTTEYSNARYVSQHTRANPNPYTSRRSVASIVGTLVRMAPVIGACMARQAESSEAMAAWSERAGEAMVLVYYESIAYS
In turn, B4 yielded an ADP-ribosyltransferase activity (cpm) of 926 cpm.

B5: S1 mutant 5-1 (Tyr8->Phe in S1/6A) (protein)
chain: MVPPATVFRYDSRPPEDVFQNGFTAWGNNDNVLDHLTGRSCQVGSSNSAFVSTSSSRRYTEVYLEHRMQEAVEAERAGRGTGHFIGYIYEVRADNNFYGAASSYFEYVDTYGDNAGRILAGALATYQSEYLAHRRIPPENIRRVTRVYHNGITGETTTTEYSNARYVSQHTRANPNPYTSRRSVASIVGTLVRMAPVIGACMARQAESSEAMAAWSERAGEAMVLVYYESIAYS
B5 displayed an ADP-ribosyltransferase activity (cpm) of 26400 ± 1320 cpm.

B6: S1 mutant 3-1 (Asp11->Glu in S1/6A) (protein)
chain: MVPPATVYRYESRPPEDVFQNGFTAWGNNDNVLDHLTGRSCQVGSSNSAFVSTSSSRRYTEVYLEHRMQEAVEAERAGRGTGHFIGYIYEVRADNNFYGAASSYFEYVDTYGDNAGRILAGALATYQSEYLAHRRIPPENIRRVTRVYHNGITGETTTTEYSNARYVSQHTRANPNPYTSRRSVASIVGTLVRMAPVIGACMARQAESSEAMAAWSERAGEAMVLVYYESIAYS
Consider B6, for which the ADP-ribosyltransferase activity (cpm) amounted to 13500 ± 1600 cpm.

B7: S1 mutant 6-1 (Asp11->Pro, Pro14->Asp in S1/6A) (protein)
chain: MVPPATVYRYPSRDPEDVFQNGFTAWGNNDNVLDHLTGRSCQVGSSNSAFVSTSSSRRYTEVYLEHRMQEAVEAERAGRGTGHFIGYIYEVRADNNFYGAASSYFEYVDTYGDNAGRILAGALATYQSEYLAHRRIPPENIRRVTRVYHNGITGETTTTEYSNARYVSQHTRANPNPYTSRRSVASIVGTLVRMAPVIGACMARQAESSEAMAAWSERAGEAMVLVYYESIAYS
Take B7: the ADP-ribosyltransferase activity (cpm) worked out at 764 cpm.

B8: S1 mutant 7-2 (Arg9->Asn, Ser12->Gly in S1/6A) (protein)
chain: MVPPATVYNYDGRPPEDVFQNGFTAWGNNDNVLDHLTGRSCQVGSSNSAFVSTSSSRRYTEVYLEHRMQEAVEAERAGRGTGHFIGYIYEVRADNNFYGAASSYFEYVDTYGDNAGRILAGALATYQSEYLAHRRIPPENIRRVTRVYHNGITGETTTTEYSNARYVSQHTRANPNPYTSRRSVASIVGTLVRMAPVIGACMARQAESSEAMAAWSERAGEAMVLVYYESIAYS
The protein B8 gave an ADP-ribosyltransferase activity (cpm) of 753 cpm.

B9: S1/6A (recombinant pertussis toxin S1 analog, parent construction 6A) (protein)
chain: MVPPATVYRYDSRPPEDVFQNGFTAWGNNDNVLDHLTGRSCQVGSSNSAFVSTSSSRRYTEVYLEHRMQEAVEAERAGRGTGHFIGYIYEVRADNNFYGAASSYFEYVDTYGDNAGRILAGALATYQSEYLAHRRIPPENIRRVTRVYHNGITGETTTTEYSNARYVSQHTRANPNPYTSRRSVASIVGTLVRMAPVIGACMARQAESSEAMAAWSERAGEAMVLVYYESIAYS
B9 registered an ADP-ribosyltransferase activity (cpm) of 23400 ± 950 cpm.

B10: S1 mutant 1-1 (Arg13->Lys in S1/6A) (protein)
chain: MVPPATVYRYDSKPPEDVFQNGFTAWGNNDNVLDHLTGRSCQVGSSNSAFVSTSSSRRYTEVYLEHRMQEAVEAERAGRGTGHFIGYIYEVRADNNFYGAASSYFEYVDTYGDNAGRILAGALATYQSEYLAHRRIPPENIRRVTRVYHNGITGETTTTEYSNARYVSQHTRANPNPYTSRRSVASIVGTLVRMAPVIGACMARQAESSEAMAAWSERAGEAMVLVYYESIAYS
The protein B10 had an ADP-ribosyltransferase activity (cpm) of 7390 ± 1370 cpm.
